Test results reported in article PMC7572813.

Target: B/Phuket/3073/2013 NA ectodomain (residues W80-L466) (influenza B virus B/Phuket/3073/2013)
Test: cryo-EM structure

B/Phuket/3073/2013 NA ectodomain (residues W80-L466) (domain or fragment)
stoichiometry N: 4
